Legend:
HeLa Kyoto [1] = test: solubility in G1/S (NP-40 vs SDS abundance) (log2 ratio); higher = more soluble; conditions: cell cycle stage: G1/S
HeLa Kyoto [2] = test: melting temperature (median over replicates), in situ; higher = more thermally stable
HeLa Kyoto [3] = test: solubility change mitosis vs G1/S (difference of NP-40 vs SDS log2 ratios) (log2 ratio difference); higher = more soluble in mitosis
HeLa Kyoto [4] = test: thermal stability score vs G1/S (z-score of summed log2 fold changes over temperatures); higher = more thermally stable than in G1/S
[5] = cell cycle stage: early G1 (4.5 h after nocodazole release)
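For melting temperature (median over replicates), in situ in this document: HeLa Kyoto cells synchronized by double thymidine or nocodazole block, proteins quantified by TMT10plex mass spectrometry, three independent biological replicates.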
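For solubility change mitosis vs G1/S (difference of NP-40 vs SDS log2 ratios) in this document: synchronized HeLa Kyoto cells (double thymidine block for G1/S, nocodazole release for mitosis), protein amounts in NP-40 versus SDS lysates quantified by mass spectrometry, three biological replicates.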
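For solubility in G1/S (NP-40 vs SDS abundance) in this document: HeLa Kyoto cells arrested at G1/S by double thymidine block, proteins quantified by TMT10plex mass spectrometry in mild NP-40 versus SDS extracts, three biological replicates.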
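For thermal stability score vs G1/S (z-score of summed log2 fold changes over temperatures) in this document: synchronized HeLa Kyoto cells, proteins quantified by TMT10plex mass spectrometry, three biological replicates, mitosis taken 0.5 h after nocodazole release, G1/S directly after double thymidine block.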

Sequence	solubility in G1/S (log2) (HeLa Kyoto [1])	melting temperature (HeLa Kyoto [2]; cell cycle stage: G1/S)	melting temperature (HeLa Kyoto [2]; cell cycle stage: mitosis)	solubility change mitosis (log2) (HeLa Kyoto [3])	thermal stability score (HeLa Kyoto [4]; [5])	thermal stability score (HeLa Kyoto [4]; cell cycle stage: mitosis)
MPLLTQQIQDEDDQYSLVASLDNVRNLSTILKAIHFREHATCFATKNGIKVTVENAKCVQANAFIQAGIFQEFKVQEESVTFRINLTVLLDCLSIFGSSPMPGTLTALRMCYQGYGYPLMLFLEEGGVVTVCKINTQEPEETLDFDFCSTNVINKIILQSEGLREAFSELDMTSEVLQITMSPDKPYFRLSTFGNAGSSHLDYPKDSDLMEAFHCNQTQVNRYKISLLKPSTKALVLSCKVSIRTDNRGFLSLQYMIRNEDGQICFVEYYCCPDEEVPESES [RAD1]	-0.0871	51.4 °C	51.2 °C	-0.225	2.13	0.628
MPLRLDIKRKLTARSDRVKSVDLHPTEPWMLASLYNGSVCVWNHETQTLVKTFEVCDLPVRAAKFVARKNWVVTGADDMQIRVFNYNTLERVHMFEAHSDYIRCIAVHPTQPFILTSSDDMLIKLWDWDKKWSCSQVFEGHTHYVMQIVINPKDNNQFASASLDRTIKVWQLGSSSPNFTLEGHEKGVNCIDYYSGGDKPYLISGADDRLVKIWDYQNKTCVQTLEGHAQNVSCASFHPELPIIITGSEDGTVRIWHSSTYRLESTLNYGMERVWCVASLRGSNNVALGYDEGSIIVKLGREEPAMSMDANGKIIWAKHSEVQQANLKAMGDAEIKDGERLPLAVKDMGSCEIYPQTIQHNPNGRFVVVCGDGEYIIYTAMALRNKSFGSAQEFAWAHDSSEYAIRESNSIVKIFKNFKEKKSFKPDFGAESIYGGFLLGVRSVNGLAFYDWDNTELIRRIEIQPKHIFWSDSGELVCIATEESFFILKYLSEKVLAAQETHEGVTEDGIEDAFEVLGEIQEIVKTGLWVGDCFIYTSSVNRLNYYVGGEIVTIAHLDRTMYLLGYIPKDNRLYLGDKELNIISYSLLVSVLEYQTAVMRRDFSMADKVLPTIPKEQRTRVAHFLEKQGFKQQALTVSTDPEHRFELALQLGELKIAYQLAVEAESEQKWKQLAELAISKCQFGLAQECLHHAQDYGGLLLLATASGNANMVNKLAEGAERDGKNNVAFMSYFLQGKVDACLELLIRTGRLPEAAFLARTYLPSQVSRVVKLWRENLSKVNQKAAESLADPTEYENLFPGLKEAFVVEEWVKETHADLWPAKQYPLVTPNEERNVMEEGKDFQPSRSTAQQELDGKPASPTPVIVASHTANKEEKSLLELEVDLDNLELEDIDTTDINLDEDILDD [COPB2]	-0.298	51.7 °C	51.3 °C	-0.0942	-0.168	-0.888
MPLVTRNIEPRHLCRQTLPSVRSELECVTNITLANVIRQLGSLSKYAEDIFGELFTQANTFASRVSSLAERVDRLQVKVTQLDPKEEEVSLQGINTRKAFRSSTIQDQKLFDRNSLPVPVLETYNTCDTPPPLNNLTPYRDDGKEALKFYTDPSYFFDLWKEKMLQDTKDIMKEKRKHRKEKKDNPNRGNVNPRKIKTRKEEWEKMKMGQEFVESKEKLGTSGYPPTLVYQNGSIGCVENVDASSYPPPPQSDSASSPSPSFSEDNLPPPPAEFSYPVDNQRGSGLAGPKRSSVVSPSHPPPAPPLGSPPGPKPGFAPPPAPPPPPPPMIGIPPPPPPVGFGSPGTPPPPSPPSFPPHPDFAAPPPPPPPPAADYPTLPPPPLSQPTGGAPPPPPPPPPPGPPPPPFTGADGQPAIPPPLSDTTKPKSSLPAVSDARSDLLSAIRQGFQLRRVEEQREQEKRDVVGNDVATILSRRIAVEYSDSEDDSSEFDEDDWSD [WASF2]	0.196	51.8 °C	51.5 °C	-0.146	0.736	1.04
MPMYQVKPYHGGGAPLRVELPTCMYRLPNVHGRSYGPAPGAGHVQEESNLSLQALESRQDDILKRLYELKAAVDGLSKMIQTPDADLDVTNIIQADEPTTLTTNALDLNSVLGKDYGALKDIVINANPASPPLSLLVLHRLLCEHFRVLSTVHTHSSVKSVPENLLKCFGEQNKKQPRQDYQLGFTLIWKNVPKTQMKFSIQTMCPIEGEGNIARFLFSLFGQKHNAVNATLIDSWVDIAIFQLKEGSSKEKAAVFRSMNSALGKSPWLAGNELTVADVVLWSVLQQIGGCSVTVPANVQRWMRSCENLAPFNTALKLLK [AIMP2]	0.321	48.9 °C	49.6 °C	0.104	0.153	1.22
MPPAVGGPVGYTPPDGGWGWAVVIGAFISIGFSYAFPKSITVFFKEIEGIFHATTSEVSWISSIMLAVMYGGGPISSILVNKYGSRIVMIVGGCLSGCGLIAASFCNTVQQLYVCIGVIGGLGLAFNLNPALTMIGKYFYKRRPLANGLAMAGSPVFLCTLAPLNQVFFGIFGWRGSFLILGGLLLNCCVAGALMRPIGPKPTKAGKDKSKASLEKAGKSGVKKDLHDANTDLIGRHPKQEKRSVFQTINQFLDLTLFTHRGFLLYLSGNVIMFFGLFAPLVFLSSYGKSQHYSSEKSAFLLSILAFVDMVARPSMGLVANTKPIRPRIQYFFAASVVANGVCHMLAPLSTTYVGFCVYAGFFGFAFGWLSSVLFETLMDLVGPQRFSSAVGLVTIVECCPVLLGPPLLGRLNDMYGDYKYTYWACGVVLIISGIYLFIGMGINYRLLAKEQKANEQKKESKEEETSIDVAGKPNEVTKAAESPDQKDTDGGPKEEESPV [SLC16A1]	0.186	55 °C	57 °C	-0.115	-4.15	-10.4

From the supplement of paper PMC5998384
